B1: RAGE V1-domain Ig-fusion protein (Fc fusion, human, UniProt Q15109 28-119, looked up)
chain: ARIGEPLVLKCKGAPKKPPQRLEWKLNTGRTEAWKVLSPQGGGPWDSVARVLPNGSLFLPAVGIQDEGIFRCQAMNRNGKETKSNYRVRVYQ
notes: RAGE, human, V1-domain, amino acids 28–119; also called V1–Ig; RAGE V1–Fc; source: Drosophila S2 cells, purified (protein A-agarose chromatography)
B2: sRAGE–Ig fusion protein lacking C2-domain (Fc fusion, human, UniProt Q15109 28-231, looked up)
chain: ARIGEPLVLKCKGAPKKPPQRLEWKLNTGRTEAWKVLSPQGGGPWDSVARVLPNGSLFLPAVGIQDEGIFRCQAMNRNGKETKSNYRVRVYQIPGKPEIVDSASELTAGVPNKVGTCVSEGSYPAGTLSWHLDGKPLVPNEKGVSVKEQTRRHPETGLFTLQSELMVTPARGGDPRPTFSCSFSPGLPRHRALRTAPIQPRVWE
notes: RAGE, human, extracellular part without the C2-domain, amino acids 28–231; also called delta C2; source: Drosophila S2 cells, purified (protein A-agarose chromatography)
B3: sRAGE–Ig fusion protein lacking C1-domain (Fc fusion, human, UniProt Q15109 28-331, looked up)
chain: ARIGEPLVLKCKGAPKKPPQRLEWKLNTGRTEAWKVLSPQGGGPWDSVARVLPNGSLFLPAVGIQDEGIFRCQAMNRNGKETKSNYRVRVYQPVPLEEVQLVVEPEGGAVAPGGTVTLTCEVPAQPSPQIHWMKDGVPLPLPPSPVLILPEIGPQDQGTYSCVATHSSHGPQESRAVSISIIEPGEEGPTAG
notes: RAGE, human, extracellular part without the C1-domain, amino acids 28–119 + 232–331; also called delta C1; source: Drosophila S2 cells, purified (protein A-agarose chromatography)

The data set concerns the molecule itself. The data set can be described thus: bead aggregation assay; monomeric fluorescent protein A coated beads incubated with 10 μg/mL of the Ig-fusion proteins, no other exogenous ligands; aggregation followed by fluorescence microscopy, index Nt/N0, pictures after 60 min.
On to B1, for which the binding result is reported as “binds”.

For B2, the binding result was “binds”.

Take B3: the binding result was “binds”.

The values are drawn from publication PMC6165534, “Inhibition of Homophilic Interactions and Ligand Binding of the Receptor for Advanced Glycation End Products by Heparin and Heparin-Related Carbohydrate Structures” (Medicines, 2018).
